# In US10869937B2, “Polymer derivatives, and novel polymer derivative imaging probe using same” (Nippon Kayaku Kabushiki Kaisha, priority 2016, dated 2020):
# Test: Average particle size measurement with single nanoparticle size analyzer IG-1000 (induced diffraction grating method)
# Format: physicochemical
# Settings: 1 mg/mL in ultrapure water, 25° C.
# Method: The particle size (average particle size) of the nanoparticles according to the invention is measured by, for example, an induced diffraction grating method. An induced diffraction grating method is a method of: (1) irradiating a 1 or 2 mg/mL aqueous solution of the block copolymer of the present invention or a composition including the block copolymer with laser light, thereby forming diffraction gratings by dielectrophoresis; (2) stopping an external force that causes dielectrophoresis, measuring the annihilation rate of the diffraction gratings caused by diffusion, and (3) applying the annihilation rate to the Stokes-Einstein relational equation to obtain the particle size. For example, the particle size may be measured with a single nanoparticle size measuring apparatus, IG-1000, manufactured by Shimadzu Corp.
# Measurement of the average particle sizes of the block copolymers of Synthesis Examples and Examples and compositions including those block copolymers was carried out using a single nanoparticle size analyzer, IG-1000, manufactured by Shimadzu Corp. (measurement temperature: 25° C., light intensity at t=0: 100 to 200). Regarding the sample for measuring the average particle size, a solution produced using ultrapure water to a block copolymer concentration of 1 mg/mL or 2 mg/mL and filtered through a 0.45 μm membrane filter, was used.
substance,measurement,value
7-ethyl-10-hydroxycamptothecin (EHC)-Bonded and ALEXA FLUOR (registered trademark) 594 Cadaverin (Alexa)-Bonded Product of Polyethylene Glycol (2 kDa)-Polyglutamic Acid (8.3 Polymerization Units) Block Copolymer [Example 3],average particle size,10 nm
